The target of assay [1] is T1, ClpA (E. coli, UniProt P0ABH9 1-758).
T1 sequence (looked up): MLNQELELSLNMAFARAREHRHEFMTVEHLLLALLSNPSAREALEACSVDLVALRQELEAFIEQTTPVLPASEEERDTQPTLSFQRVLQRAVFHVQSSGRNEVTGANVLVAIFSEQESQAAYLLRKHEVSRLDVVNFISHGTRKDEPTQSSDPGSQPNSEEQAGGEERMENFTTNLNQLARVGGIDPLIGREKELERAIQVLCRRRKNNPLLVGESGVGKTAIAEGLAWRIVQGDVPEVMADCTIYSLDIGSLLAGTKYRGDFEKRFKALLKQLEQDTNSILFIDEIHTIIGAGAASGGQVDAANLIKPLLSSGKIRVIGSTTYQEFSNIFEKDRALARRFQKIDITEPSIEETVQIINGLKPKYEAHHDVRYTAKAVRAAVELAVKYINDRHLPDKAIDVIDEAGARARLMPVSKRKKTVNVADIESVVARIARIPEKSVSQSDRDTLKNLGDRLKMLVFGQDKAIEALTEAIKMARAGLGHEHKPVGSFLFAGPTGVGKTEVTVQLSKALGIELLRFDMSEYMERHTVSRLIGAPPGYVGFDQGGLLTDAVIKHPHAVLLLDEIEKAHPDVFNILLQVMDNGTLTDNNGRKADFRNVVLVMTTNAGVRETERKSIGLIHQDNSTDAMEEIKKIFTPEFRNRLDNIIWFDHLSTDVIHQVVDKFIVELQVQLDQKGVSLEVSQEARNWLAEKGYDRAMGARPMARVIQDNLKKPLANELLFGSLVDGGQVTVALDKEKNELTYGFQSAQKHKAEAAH
The experiment in a line: fluorescence polarisation. (In general: Fluorescence polarisation rises when a labelled molecule tumbles more slowly, as on binding a larger partner.)

Assay [2] concerns the target T1, ClpA.
The target of assay [3] is ClpS*^fl (fluorescein-labelled variant of ClpS containing one cysteine) (E. coli) (UniProt P0A8Q6). Kind of assay: fluorescence polarisation.
The target in assay [4] is T2, ClpA-ClpS complex (ClpAS; printed as ClpAPS in the text) (E. coli, UniProt P0ABH9 1-758; P0A8Q6 2-106).
T2 sequence 1: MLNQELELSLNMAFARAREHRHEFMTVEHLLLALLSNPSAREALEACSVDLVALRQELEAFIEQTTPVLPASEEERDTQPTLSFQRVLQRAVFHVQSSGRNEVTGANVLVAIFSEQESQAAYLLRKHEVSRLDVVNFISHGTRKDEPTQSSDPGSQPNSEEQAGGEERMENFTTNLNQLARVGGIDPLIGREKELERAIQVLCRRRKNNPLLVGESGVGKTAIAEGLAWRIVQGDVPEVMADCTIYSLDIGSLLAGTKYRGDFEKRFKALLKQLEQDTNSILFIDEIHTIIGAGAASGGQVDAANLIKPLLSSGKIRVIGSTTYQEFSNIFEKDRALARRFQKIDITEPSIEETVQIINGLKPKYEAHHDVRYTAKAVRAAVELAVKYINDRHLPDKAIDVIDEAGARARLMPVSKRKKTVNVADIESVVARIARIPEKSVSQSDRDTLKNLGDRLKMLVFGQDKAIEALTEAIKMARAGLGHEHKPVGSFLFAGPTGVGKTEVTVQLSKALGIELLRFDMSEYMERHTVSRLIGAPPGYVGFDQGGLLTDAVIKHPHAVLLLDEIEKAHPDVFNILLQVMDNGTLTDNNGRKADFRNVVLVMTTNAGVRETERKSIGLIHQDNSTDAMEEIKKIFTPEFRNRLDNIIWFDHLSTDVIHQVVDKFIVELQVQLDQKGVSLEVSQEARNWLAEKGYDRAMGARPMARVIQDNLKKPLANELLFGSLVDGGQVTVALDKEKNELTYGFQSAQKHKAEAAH
T2 sequence 2: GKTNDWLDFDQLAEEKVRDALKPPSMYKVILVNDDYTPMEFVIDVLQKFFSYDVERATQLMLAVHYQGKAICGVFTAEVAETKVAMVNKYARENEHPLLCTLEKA
The experiment in a line: fluorescence polarisation.

The target of assay [5] is T1, ClpA. The experiment in a line: fluorescence polarisation. This is another data set of the same source.

For orientation: Kd means the concentration at which binding is half-saturated. A lower Kd goes with higher affinity.

Like-named read-outs stand apart in the source and are kept apart here.

B1: ClpS (natural protein, E. coli)
chain: GKTNDWLDFDQLAEEKVRDALKPPSMYKVILVNDDYTPMEFVIDVLQKFFSYDVERATQLMLAVHYQGKAICGVFTAEVAETKVAMVNKYARENEHPLLCTLEKA
In the case of B1, the binding result with ClpA [1] is “binds”.

B2: ClpS^ΔN17 (domain or fragment, E. coli, UniProt P0A8Q6 18-106, looked up)
chain: VRDALKPPSMYKVILVNDDYTPMEFVIDVLQKFFSYDVERATQLMLAVHYQGKAICGVFTAEVAETKVAMVNKYARENEHPLLCTLEKA
The molecule B2 displayed a Kd with ClpA [2] of roughly 160 nM.

B3: ClpA (enzyme)
chain: MLNQELELSLNMAFARAREHRHEFMTVEHLLLALLSNPSAREALEACSVDLVALRQELEAFIEQTTPVLPASEEERDTQPTLSFQRVLQRAVFHVQSSGRNEVTGANVLVAIFSEQESQAAYLLRKHEVSRLDVVNFISHGTRKDEPTQSSDPGSQPNSEEQAGGEERMENFTTNLNQLARVGGIDPLIGREKELERAIQVLCRRRKNNPLLVGESGVGKTAIAEGLAWRIVQGDVPEVMADCTIYSLDIGSLLAGTKYRGDFEKRFKALLKQLEQDTNSILFIDEIHTIIGAGAASGGQVDAANLIKPLLSSGKIRVIGSTTYQEFSNIFEKDRALARRFQKIDITEPSIEETVQIINGLKPKYEAHHDVRYTAKAVRAAVELAVKYINDRHLPDKAIDVIDEAGARARLMPVSKRKKTVNVADIESVVARIARIPEKSVSQSDRDTLKNLGDRLKMLVFGQDKAIEALTEAIKMARAGLGHEHKPVGSFLFAGPTGVGKTEVTVQLSKALGIELLRFDMSEYMERHTVSRLIGAPPGYVGFDQGGLLTDAVIKHPHAVLLLDEIEKAHPDVFNILLQVMDNGTLTDNNGRKADFRNVVLVMTTNAGVRETERKSIGLIHQDNSTDAMEEIKKIFTPEFRNRLDNIIWFDHLSTDVIHQVVDKFIVELQVQLDQKGVSLEVSQEARNWLAEKGYDRAMGARPMARVIQDNLKKPLANELLFGSLVDGGQVTVALDKEKNELTYGFQSAQKHKAEAAH
Molecule B3 displayed a Kd in assay [3] of 160 nM.

B4: λ*^fl-ssrA (fluorescein-labelled ssrA-tagged DNA-binding domain of λ repressor, λ(1-93)^A21C-ssrA) (domain or fragment, bacteriophage λ | E. coli)
chain: MSTKKKPLTQEQLEDARRLKCIYEKKKNELGLSQESVADKMGMGQSGVGALFNGINALNAYNAALLAKILKVSVEEFSPSIAREIYEMYEAVSAANDENYALAA
modifications: fluorescein (fluorescein-5-maleimide) on the single cysteine
As for B4, the results for the Kd (in assay [4]; with ClpA [5]) were roughly 8000 nM and 740 nM, respectively.

Source of the values: article PMC7895464 (Journal of molecular biology, 2020).
